What was measured:
[1] = target: HLA-A*02:01; experiment: IEDB peptide-MHC binding, purified MHC/competitive/radioactivity; ≥ and ≤ were set here for values at or beyond the usual limits of such assays; conditions: source organism: Plasmodium falciparum
[2] = target: HLA-B*07:02; experiment: as above
[3] = target: HLA-B*07:02; experiment: IEDB peptide-MHC binding, purified MHC/competitive/radioactivity; filed as Kd, often an IC50 or EC50 that approximates it; ≥ and ≤ were set here for values at or beyond the usual limits of such assays; conditions: source organism: Human immunodeficiency virus 1
[4] = source organism: Human immunodeficiency virus 1

ILSVSSFLFV gave an IC50 [1] of 208 nM.
With GLLGVVSTV the IC50 [1] was 24.3 nM.
With HPVHAGPIA the IC50 [2, 4] was 57 nM.
Sequence YPLASLRSLF has an IC50 [2, 4] of 408 nM.
Sequence RPPIFIRRL has an IC50 ([2]; source organism: human gammaherpesvirus 4) of 21 nM.
GPKVKQWPI gave a Kd [3] of 5570 nM.
In the case of IPIHYCAPA, the IC50 [2, 4] is reported as 445 nM.
For TPYAGEPAPF, the IC50 ([2]; source organism: Plasmodium falciparum) was 31 nM.
TPGIRYQYNI was tested, and the Kd [3] was 8620 nM.
Sequence QPRAPIRPIPT has an IC50 ([2]; source organism: Human herpesvirus 4 strain B95-8) of 110 nM.
Work on CPKVSFEPI yielded an IC50 [2, 4] of 127 nM.
WPLTEEKIKI was tested, and the Kd [3] was 19400 nM.

From the Immune Epitope Database (IEDB)
